Two molecules from US20200230253A1 can be followed below.

Experiment [1] has as its target mannose phosphate 6 receptor (M6PR) expressed on HepG2 cells (human). Description: cell-based or functional assay.
Experiment [2] addresses mannose phosphate 6 receptor (M6PR), immobilized on a CM5 chip. In words: SPR, M6PR immobilized; the reference itself. (In general: In SPR one partner is held on a chip, and binding of the other changes the refractive index at the surface.)
Experiment [3] has the same target. In words: SPR (BIACORE T200), M6PR immobilized on CM5 chip by amine coupling.
For experiment [4] the target is unchanged. Description: SPR (BIACORE T200), M6PR immobilized on CM5 chip by amine coupling, analyte 200 nM to 12.5 nM in HBS-EP.
For experiment [5] the target is unchanged. In words: SPR, M6PR immobilized; relative to iduronate-2-sulfatase.

Turning to “iduronate-2-sulfatase (Elaprase manufactured by Shire) (from UniProt P22304 26-550) (enzyme)”, the intracellular absorption activity (Vmax), HepG2 cells, 24 h at 37 C, ELISA of cell content in experiment [1] is 9.5 nM. In experiment [2], this molecule gave a relative binding affinity from KD (% of iduronate-2-sulfatase) of 100%, a relative ka (% of iduronate-2-sulfatase) of 100% and a relative kd (% of iduronate-2-sulfatase) of 100%. In experiment [3], the Kd (usually the constant that tells how readily two partners part at equilibrium) amounted to 29.1 nM and the koff (usually a measure of how fast the partners let go of each other) came to 0.00395 s⁻¹. In addition, the kon (as a rule, a measure of how fast the partners come together) in experiment [4] amounted to 136000 M⁻¹ s⁻¹.

B1: long-acting iduronate-2-sulfatase conjugate (protein, part only; not given: Immunoglobulin Fc and PEG linker, human, UniProt P22304 26-550, looked up, not shown: a dimerising Fc or GST)
chain: SETQANSTTDALNVLLIIVDDLRPSLGCYGDKLVRSPNIDQLASHSLLFQNAFAQQAVCAPSRVSFLTGRRPDTTRLYDFNSYWRVHAGNFSTIPQYFKENGYVTMSVGKVFHPGISSNHTDDSPYSWSFPPYHPSSEKYENTKTCRGPDGELHANLLCPVDVLDVPEGTLPDKQSTEQAIQLLEKMKTSASPFFLAVGYHKPHIPFRYPKEFQKLYPLENITLAPDPEVPDGLPPVAYNPWMDIRQREDVQALNISVPYGPIPVDFQRKIRQSYFASVSYLDTQVGRLLSALDDLQLANSTIIAFTSDHGWALGEHGEWAKYSNFDVATHVPLIFYVPGRTASLPEAGEKLFPYLDPFDSASQLMEPGRQSMDLVELVSLFPTLAGLAGLQVPPRCPVPSFHVELCREGKNLLKHFRFRDLEEDPYLPGNPRELIAYSQYPRPSDIPQWNSDKPSLKDIKIMGYSIRTIDYRYTVWVGFNPDEFLANFSDIHAGELYFVDSDPLQDHNMYNDSQGGDLFQLLMP
modifications: N-terminus linked through a 10 kDa polyethylene glycol linker (from ALD-PEG-ALD, reductive amination) to the N-terminal proline of one chain of the immunoglobulin Fc
In experiment [1], B1 had an intracellular absorption activity (Vmax), HepG2 cells, 24 h at 37 C, ELISA of cell content of 10.8 ng/mL and an intracellular absorption activity relative to iduronate-2-sulfatase of 81.4%. For the same molecule, in experiment [5], the relative binding affinity from KD (% of iduronate-2-sulfatase) was determined as 88%, the relative ka (% of iduronate-2-sulfatase) is 67% and the relative kd (% of iduronate-2-sulfatase) worked out at 78%. In experiment [3], this molecule registered a Kd of 33.1 nM, a dissociation rate constant (koff) of 0.00307 s⁻¹ and a kon of 92000 M⁻¹ s⁻¹.
